Reference: the supplement of paper PMC9732359
± gives the uncertainty stated by the source.

Experiment: protein stability index of a GFP-peptide fusion (yeast GPS) (PSI 1-4); higher = more stable; sorted into four equal gates, so the index is relative within each strain
Settings: pdr5∆
Method in brief: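 The protein stability index of a peptide was calculated by multiplying its read frequency in each gate by that gate's number and adding the products. The peptides were tiled 17-residue stretches of yeast proteins, fused downstream of GFP on a Cherry-expressing plasmid and carried in yeast as a pooled library. Mid-log cultures in leucine-free medium were sorted into four equal gates by GFP/Cherry ratio, and each gate's plasmids were PCR-amplified and Illumina-sequenced.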
Work on EAKSFQDEAELVEEKTP [RPC82] yielded a protein stability index of 3.46 ± 0.14.

Same assay, conditions: san1∆
With DMATGSNDTTAFNDSCV [SRB8] the protein stability index was 3.14 ± 0.045. Work on DMPCDVLAKRMANLSQI [SCL1] yielded a protein stability index of 1.6 ± 0.17. In the case of DMVMATVKKGKPELRKK [RPL23A], the protein stability index is reported as 3.54 ± 0.1. DNDTVVTNDDKSDDDDH [SRB8] showed a protein stability index of 3.24 ± 0.26. Sequence DNGLGPLKYAPHLPFSK [SWI3] has a protein stability index of 2.85 ± 0.07. With DNMITGVTKGYKYKMRY [RPL9A] the protein stability index was 2.92 ± 0.27. For DNPDQGISDMCRLFFTE [YCS4], the protein stability index was 3.03 ± 0.14. DNSEYSRNGDFPRTRFE [RPN10] showed a protein stability index of 3.45 ± 0.16. DNTARVIFDASIKDTQN [BRN1] gave a protein stability index of 2.42 ± 0.1. Sequence DNTSHDEQDDDNVNSTT [BRN1] has a protein stability index of 3.17 ± 0.1. Work on DNVDDIGEFNVSMYQNS [YDL088C/ASM4] yielded a protein stability index of 2.94 ± 0.22. For DNYFNLQLNEAEEFVAG [SMX3], the protein stability index was 2.5 ± 0.1. Work on DPAHSLNYTVINFKSRE [AAR2] yielded a protein stability index of 3.14 ± 0.046. Work on DPEEVEQQVAEEATTEE [RPS0A] yielded a protein stability index of 3.1 ± 0.077. With DPKSPTKRSIAIVFEEI [YMR129W/POM152] the protein stability index was 2.77 ± 0.055. DPLNSNIFSEAVKNKYN [PRP28] showed a protein stability index of 3.02 ± 0.09. With DPQQVFDERIKFANQLH [RPN3] the protein stability index was 1.41 ± 0.14. With DPSGSYFPWKATAIGKG [PRE8] the protein stability index was 2.82 ± 0.077. With DQEKKYGMSITETFEKP [RPB2] the protein stability index was 3.15 ± 0.096. In the case of DQFQWILRKPGKDCKLQ [RRI2], the protein stability index is reported as 3.26 ± 0.16. Work on DQHVINILWAIYNSASK [YCS4] yielded a protein stability index of 1.63 ± 0.077. DQIAVCEISGSIEQLRN [BRN1] showed a protein stability index of 3.11 ± 0.19. Work on DQNNKKMVGLRGFNNQI [SNF2] yielded a protein stability index of 3.2 ± 0.072. Sequence DQSISKLQSWDKVSSCF [NNF1] has a protein stability index of 1.42 ± 0.1. In the case of DQVLNLCLTEFENCYLE [FAS1], the protein stability index is reported as 3.18 ± 0.14. Sequence DRCVDPEDPYFNTLVRI [DIS3] has a protein stability index of 3.48 ± 0.058. With DRFKPNLDIAKDLIRTD [MED4] the protein stability index was 2.82 ± 0.11. DRGIANIRNNIESQNLD [SRB4] showed a protein stability index of 2.98 ± 0.11. With DRKSIMPLKILLATKQH [CSN12] the protein stability index was 1.53 ± 0.11. Work on DRNNSTNQIFQSRRYNL [SIN4] yielded a protein stability index of 2.71 ± 0.053. DRVVSSDSLDIAQGIDL [SRP72] showed a protein stability index of 2.27 ± 0.079. With DRYGNRYFWLDHNGVPF [ITC1] the protein stability index was 2.92 ± 0.051. Sequence DSEKHIDFAPTSPFGGA [RPS9A] has a protein stability index of 2.69 ± 0.068. DSETSDPNEVEIKKLLA [DIS3] showed a protein stability index of 2.82 ± 0.075. DSIASVLSPDSNIMSDS [GAL11] showed a protein stability index of 3.03 ± 0.064. For DSIGSTRVEGSGGGDSE [RPT6], the protein stability index was 3.1 ± 0.065. With DSILNYAKSEFDNVASV [ECM29] the protein stability index was 3.04 ± 0.087. DSKKIKVDSPDDPFMTK [GAL11] gave a protein stability index of 2.5 ± 0.057. Work on DSLASELTLAEQQVKEA [SMC4] yielded a protein stability index of 3.23 ± 0.15. DSNYKWDLSVEDALYLG [PRE2] gave a protein stability index of 3.33 ± 0.07. Work on DSQDYILSINAIDYEPE [SMC1] yielded a protein stability index of 3 ± 0.046. With DSRLSRKQIDETQVLVS [BRR2] the protein stability index was 1.82 ± 0.072. In the case of DSSGVNDLHHSEKKYAE [RPN3], the protein stability index is reported as 2.88 ± 0.21. In the case of DSTDNENSGKEMDEKSY [LIN1], the protein stability index is reported as 2.88 ± 0.29. In the case of DSTNLSDDAAQFMKRFP [ECM29], the protein stability index is reported as 1.45 ± 0.092. With DSVILASSKAVTRGISV [PRE1] the protein stability index was 2.28 ± 0.056. Sequence DSYGQGSMTKTWYVGNS [SSN2] has a protein stability index of 3.34 ± 0.16. DTIDNVKSKIQDKEGIP [RPS31] gave a protein stability index of 3.38 ± 0.05. DTLKLRENLHILNEVFT [RRP6] gave a protein stability index of 2.59 ± 0.058. Sequence DTLNETNLKMKRKWSYV [RRP43] has a protein stability index of 2.98 ± 0.1. DTNVVLQAIDLLENPNC [DIS3] showed a protein stability index of 2.63 ± 0.074. Sequence DTPEGEACGLVKNLALM [RET1] has a protein stability index of 3.21 ± 0.1. For DTRFGGRMDMTRLYDYE [SSN2], the protein stability index was 3.47 ± 0.045. In the case of DTRITHLLRQTNAFLDS [SNF2], the protein stability index is reported as 1.54 ± 0.064. In the case of DTVSWFKQKYDADVLDK [RPL11A], the protein stability index is reported as 1.64 ± 0.077. Sequence DVECIKAKSHFTNIISR [YJL039C/NUP192] has a protein stability index of 2.73 ± 0.078. With DVKKRTYEAIDVPGREL [RPB2] the protein stability index was 2.62 ± 0.23. DVKVIMATNKIETLDPA [RPT2] gave a protein stability index of 2.92 ± 0.07. In the case of DVLHPNRANVSKDELRE [RPS24A], the protein stability index is reported as 3.19 ± 0.092. DVLTLENIQEGTSLTIQ [CDC53] gave a protein stability index of 3.1 ± 0.056. Sequence DVNLDVRIHSIQVLTEA [IRR1] has a protein stability index of 2.78 ± 0.18. Sequence DVPSEDDPTQLVSRGGC [RPO21] has a protein stability index of 2.97 ± 0.21. Work on DVSLLLQRDLFIRLPHW [RGR1] yielded a protein stability index of 2.2 ± 0.073. For DVSQLIAGINKKKGLDE [PRP28], the protein stability index was 3.29 ± 0.086. DVSRVAAVETLYQDMAA [RPL20A] gave a protein stability index of 2.37 ± 0.089. For DVTAIQTWSYLSLYSTD [ECM29], the protein stability index was 1.9 ± 0.055. For DWESDLHIHLNQILQTE [YDL116W/NUP84], the protein stability index was 2.77 ± 0.092. DWNKRFSHLAGGKIINK [BRR2] gave a protein stability index of 3.12 ± 0.2. For DYIEFNITFSEELVSLA [YJL039C/NUP192], the protein stability index was 1.54 ± 0.27. DYLNAELGEFFVNGVAT [FAS2] showed a protein stability index of 3.06 ± 0.12. For EAAFRNIKTIAETLAEE [RPS5], the protein stability index was 3.25 ± 0.053. EAFNDGNENFEDFDVEH [RPO26] showed a protein stability index of 2.92 ± 0.085. Sequence EAHPTKVKNFGVWVRYD [RPL20A] has a protein stability index of 3.01 ± 0.044. In the case of EAKSFQDEAELVEEKTP [RPC82], the protein stability index is reported as 3.51 ± 0.14.
